Data set [1] concerns the target T1, GAMYB (OsGAMYB) (Oryza sativa) (UniProt Q0JIC2).
T1 sequence: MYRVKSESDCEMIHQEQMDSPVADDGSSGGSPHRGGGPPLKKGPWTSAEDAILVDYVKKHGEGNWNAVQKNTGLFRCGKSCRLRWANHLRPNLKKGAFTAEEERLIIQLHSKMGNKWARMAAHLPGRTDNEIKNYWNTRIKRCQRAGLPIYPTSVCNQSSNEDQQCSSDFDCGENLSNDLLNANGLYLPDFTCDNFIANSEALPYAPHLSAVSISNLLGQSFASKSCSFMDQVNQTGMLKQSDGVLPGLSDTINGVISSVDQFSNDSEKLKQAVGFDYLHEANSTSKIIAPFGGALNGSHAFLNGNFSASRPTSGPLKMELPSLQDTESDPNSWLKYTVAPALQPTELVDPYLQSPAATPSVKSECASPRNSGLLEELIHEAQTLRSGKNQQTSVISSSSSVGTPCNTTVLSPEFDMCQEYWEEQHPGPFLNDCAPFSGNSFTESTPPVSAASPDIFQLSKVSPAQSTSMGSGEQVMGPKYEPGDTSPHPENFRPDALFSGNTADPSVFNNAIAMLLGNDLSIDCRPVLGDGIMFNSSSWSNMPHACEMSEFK
Put plainly: cell_activity. The conditions noted are these: GUS increase without GA versus empty Ubi1.cass effector.

The target of data set [2] is T2, GAMYB (HvGAMYB), GST fusion (Hordeum vulgare).
T2 chain: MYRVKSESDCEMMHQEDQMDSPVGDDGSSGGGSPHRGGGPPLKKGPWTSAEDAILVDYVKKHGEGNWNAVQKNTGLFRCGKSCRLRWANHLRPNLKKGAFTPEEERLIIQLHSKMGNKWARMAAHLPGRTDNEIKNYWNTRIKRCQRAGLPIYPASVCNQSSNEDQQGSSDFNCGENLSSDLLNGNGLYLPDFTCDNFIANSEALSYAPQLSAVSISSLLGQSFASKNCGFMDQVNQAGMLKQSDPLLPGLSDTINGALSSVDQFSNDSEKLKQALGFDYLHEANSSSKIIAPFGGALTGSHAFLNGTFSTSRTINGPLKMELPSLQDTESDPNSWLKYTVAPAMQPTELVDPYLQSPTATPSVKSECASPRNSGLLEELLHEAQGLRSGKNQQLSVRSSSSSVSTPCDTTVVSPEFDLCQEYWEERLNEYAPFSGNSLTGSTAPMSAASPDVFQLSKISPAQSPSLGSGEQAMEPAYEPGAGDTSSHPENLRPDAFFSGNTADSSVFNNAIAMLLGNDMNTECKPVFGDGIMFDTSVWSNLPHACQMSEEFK
Briefly: EMSA; single mutation at 3' end of site. The conditions noted are these: tags: N-terminal GST (pGEX), E. coli XL1-blue; label: 32P; 5' overhangs. The protocol:
(§1) After annealing the complementary oligonucleotides were 3' end-labelled using ^32P-dCTp and the Klenow fragment, and purified by electrophoresis on polyacrylamide gels. Bacterially-produced GAMYB fusion protein-oligonucleotide binding reactions were performed in 10 µl binding buffer (24 mM Hepes-KOH pH 7.9, 50 mM KCl, 0.5 mM EDTA, 0.5 mM dithiothreitol, 10% (v/v) glycerol) with 2 µg of poly(dI-dC)-poly(dI-dC), 150 ng of GAMYB fusion protein and 0.9 ng of a $^32$P-labelled oligonucleotide probe (40,000 cpm). After incubation at 20° C. for 10 min, the samples were run on a 6% (w/v) polyacrylamide gel containing 5% (v/v) glycerol, in 0.25 x Tris-borate-EDTA buffer at 140 volts. After electrophoresis, the gels were dried and autoradiographed.
(§2) To test whether GAMYB binds to the TAACAAA box in the high-pI α-amylase promoter, we performed gel-retardation experiments as described in Example 8. We looked for binding between an oligonucleotide probe (w) containing the amylase promoter sequence (−149 to −128), including the wild-type TAACAAA box and an affinity-purified glutathione-s-transferase (GST)-GAMYB fusion protein that had been expressed in Escherichia coil according to Example 7. […] Experiments were also performed using mutant oligonucleotide probes (m-1 to m-5).
Background: In EMSA bound probe runs differently from free probe, usually more slowly.

The target in data set [3] is T2, GAMYB (HvGAMYB), GST fusion. Put plainly: EMSA; multi-bp mutation abolishes binding. The settings on record: tags: N-terminal GST (pGEX), E. coli XL1-blue; label: 32P; 5' overhangs. The protocol:
as §1, §2

Data set [4] shares this target. Briefly: EMSA; 24 mM Hepes-KOH pH 7.9, 50 mM KCl, poly(dI-dC), 20 C; 100-fold cold w abolishes complex. The settings on record: tags: N-terminal GST (pGEX), E. coli XL1-blue; label: 32P; 5' overhangs. How it is done: as §1, §2
Data set [5] concerns the target Glutathione-S-transferase (GST control) (UniProt P08515 P08515:1-218). Put plainly: EMSA; GST alone control. The conditions noted are these: tags: pGEX vector; label: 32P; 5' overhangs. How it is done:
as §1, §2

In data set [6] the target is T2, GAMYB (HvGAMYB), GST fusion. Briefly: EMSA; TAACAGAc; mutation had no effect on binding. The conditions noted are these: tags: N-terminal GST (pGEX), E. coli XL1-blue; label: 32P; 5' overhangs. How it is done:
as §1, §2

For data set [7] the target is unchanged. Put plainly: EMSA; single mutation TGACAAAc. The settings on record: tags: N-terminal GST (pGEX), E. coli XL1-blue; label: 32P; 5' overhangs. How it is done: as §1, §2

Glutathione-S-transferase (GST control), sequence (P08515 whole entry, one chain of several): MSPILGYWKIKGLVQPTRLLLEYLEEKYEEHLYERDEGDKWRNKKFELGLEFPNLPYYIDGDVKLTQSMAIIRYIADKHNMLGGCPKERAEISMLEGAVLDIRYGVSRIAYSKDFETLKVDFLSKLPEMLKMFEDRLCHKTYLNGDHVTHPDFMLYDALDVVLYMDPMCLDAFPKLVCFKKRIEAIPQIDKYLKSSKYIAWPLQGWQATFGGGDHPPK

Take “Amy32b low-pI alpha-amylase promoter (mlo22)”: the activity in data set [1] amounted to 176 fold.

B1: m-4 (dsDNA)
DNA 1: GGCCGATAACAAGCTCCGG
DNA 2: CCGGAGCTTGTTATCGGCC
As for B1, the binding result in data set [2] is given as “no binding”.

B2: m-1 (dsDNA)
DNA 1: GGCCGACTCGAGACTCCGG
DNA 2: CCGGAGTCTCGAGTCGGCC
As for B2, the binding result in data set [3] is “no binding”.

B3: w (dsDNA)
DNA 1: GGCCGATAACAAACTCCGG
DNA 2: CCGGAGTTTGTTATCGGCC
Turning to B3, the binding result in data set [4] is listed as “binds”; in data set [5], “no binding”.

B4: m-3 (dsDNA)
DNA 1: GGCCGATAACAGACTCCGG
DNA 2: CCGGAGTCTGTTATCGGCC
Regarding B4, the binding result in data set [6] was “binds”.

B5: m-5 (dsDNA)
DNA 1: GGCCGATAACAAAATCCGG
DNA 2: CCGGATTTTGTTATCGGCC
Consider B5, for which the binding result in data set [2] is reported as “no binding”.

B6: m-2 (dsDNA)
DNA 1: GGCCGATGACAAACTCCGG
DNA 2: CCGGAGTTTGTCATCGGCC
Consider B6, for which the binding result in data set [7] is recorded as “no binding”.

Source of the values: patent publication US6271440, “Plant regulatory proteins III” (The Australian National University).
